B1: ORF3a protein (SARS-CoV-2), P0DTC3 (parent)
chain: MDLFMRIFTIGTVTLKQGEIKDATPSDFVRATATIPIQASLPFGWLIVGVALLAVFQSASKIITLKKRWQLALSKGVHFVCNLLLLFVTVYSHLLLVAAGLEAPFLYLYALVYFLQSINFVRIIMRLWLCWKCRSKNPLLYDANYFLCWHTNCYDYCIPYNSVTSSIVITSGDGTTSPISEHDYQIGGYTEKWESGVKDCVVLHSYFTSDYYQLYSTQLSTDTGVEHVTFFIYNKIVDEPEEHVQIHTIDGSSGVVNPVMEPIYDEPTTTTSVPL
partner: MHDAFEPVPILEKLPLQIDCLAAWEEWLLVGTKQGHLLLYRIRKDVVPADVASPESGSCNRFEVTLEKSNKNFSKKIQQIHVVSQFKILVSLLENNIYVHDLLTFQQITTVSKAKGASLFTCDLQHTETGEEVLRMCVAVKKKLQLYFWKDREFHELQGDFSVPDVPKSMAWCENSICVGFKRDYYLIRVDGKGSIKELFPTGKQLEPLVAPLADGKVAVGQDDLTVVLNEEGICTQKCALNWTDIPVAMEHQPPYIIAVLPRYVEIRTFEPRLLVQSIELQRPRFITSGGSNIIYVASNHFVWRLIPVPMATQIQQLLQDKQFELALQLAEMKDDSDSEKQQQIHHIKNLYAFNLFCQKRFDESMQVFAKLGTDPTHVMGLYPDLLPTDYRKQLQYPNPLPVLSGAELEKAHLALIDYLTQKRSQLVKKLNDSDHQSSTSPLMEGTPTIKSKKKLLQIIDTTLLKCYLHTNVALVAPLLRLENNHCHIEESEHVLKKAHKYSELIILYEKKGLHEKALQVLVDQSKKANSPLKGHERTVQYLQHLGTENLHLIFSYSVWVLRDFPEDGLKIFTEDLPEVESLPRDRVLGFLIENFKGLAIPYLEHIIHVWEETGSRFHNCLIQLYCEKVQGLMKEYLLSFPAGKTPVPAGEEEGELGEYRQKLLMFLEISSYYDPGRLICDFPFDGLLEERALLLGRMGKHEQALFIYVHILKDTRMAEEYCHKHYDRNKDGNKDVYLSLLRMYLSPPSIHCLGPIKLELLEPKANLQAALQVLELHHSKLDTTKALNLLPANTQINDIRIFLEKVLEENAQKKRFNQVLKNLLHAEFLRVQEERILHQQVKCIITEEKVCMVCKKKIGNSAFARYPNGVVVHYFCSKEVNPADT

In this assay the parent is B1. Particulars: with vps39_human VPS39, Q96JC1.
For the variant Y160A, the “effect of a mutation on the interaction” value is on record as “disrupting interaction strength”.
